Assay results as given in PMC3494461.

Substrate: CC(=O)C(=O)O
Experiment: purified protein
Assay type: biochemical, Escherichia coli
Conditions: 37 °C, pyruvate (1–90 mM) as donor and acceptor, no D-GAP

B1: DXP synthase (Escherichia coli K-12) (protein)
chain: SFDIAKYPTLALVDSTQELRLLPKESLPKLCDELRRYLLDSVSRSSGHFASGLGTVELTVALHYVYNTPFDQLIWDVGHQAYPHKILTGRRDKIGTIRQKGGLHPFPWRGESEYDVLSVGHSSTSISAGIGIAVAAEKEGKNRRTVCVIGDGAITAGMAFEAMNHAGDIRPDMLVILNDNEMSISENVGALNNHLAQLLSGKLYSSLREGGKKVFSGVPPIKELLKRTEEHIKGMVVPGTLFEELGFNYIGPVDGHDVLGLITTLKNMRDLKGPQFLHIMTKKGRGYEPAEKDPITFHAVPKFDPSSGCLPKSSGGLPSYSKIFGDWLCETAAKDNKLMAITPAMREGSGMVEFSRKFPDRYFDVAIAEQHAVTFAAGLAIGGYKPIVAIYSTFLQRAYDQVLHDVAIQKLPVLFAIDRAGIVGADGQTHQGAFDLSYLRCIPEMVIMTPSDENECRQMLYTGYHYNDGPSAVRYPRGNAVGVELTPLEKLPIGKGIVKRRGEKLAILNFGTLMPEAAKVAESLNATLVDMRFVKPLDEALILEMAASHEALVTVEENAIMGGAGSGVNEVLMAHRKPVPVLNIGLPDFFIPQGTQEEMRAELGLDAAGMEAKIKAWLA
With B1 the K0.5 was 51.0 ± 1.7 mM.
